Data set [1] has as its system Hep3B cells. The data set is described as follows: Effect of insertion site position on apoptotic potency, YOYO3. As to conditions: Hep3B cells transfected with constructs. It counts as cell-based. As for the experimental part:
BH3 domain was inserted into either the N-terminal insertion site, the loop 1 insertion site or the loop 2 insertion site of the SQT scaffold polypeptide. The mRNA sequences of these SQT-BID-BH3 constructs, with a FLAG epitope tag, are shown in SEQ ID NOs: 43-45, respectively. Corresponding mRNA sequences without the FLAG tag are shown in SEQ ID NOs: 46-48. Hep3B cells were transfected with the constructs and the apoptotic ability of the constructs was assessed using YOYO3 to determine cell death, as described above.

For another data set, the system named is cells. The data set is described as follows: Half-life determination by bio-orthogonal non-canonical amino acid tagging (BONCAT). The data set is classed as cell-based. As to conditions: SQT protein scaffold in cells, post-transfection, one-phase decay fit. As to the method: The half-life of the SQT protein scaffold in cells was determined by Bio-orthogonal non-canonical amino acid tagging (BONCAT). […] AHA contains a reactive group (a terminal azide), which can be conjugated to a fluorophore via click chemistry. Newly synthesized proteins in the cells were separated by molecular weight (SDS-PAGE) at various time points post-transfection and visualized via in-gel fluorescence. The fluorescent signal was quantified using Li-cor's Image Studio (Version 3.1). One-phase decay nonlinear regression fit was by GraphPad Prism (Version 6).

A short description of data set [2]: Pharmacokinetics of intracellular expression of SQT scaffold polypeptide in mouse livers in vivo. Also noted: species or system mice. As to conditions: mouse liver. As for the experimental part: Studies were performed to assess the pharmacokinetics of intracellular expression of the SQT scaffold polypeptide in mouse livers in vivo following multiple dosing. Mice were dosed on day 0 and on day 7 with an LNP carrying an mmRNA construct encoding the SQT scaffold polypeptide. The construct lacked any presenting polypeptides at any of the insertion sites (i.e., the construct was a “dummy” construct of only the scaffold), and was labeled with a FLAG epitope tag. Following dosing with the LNPs, liver protein was recovered and analyzed for expression of the SQT scaffold using the FLAG epitope tag for detection and quantification by quantitative Western blot analysis (LICOR/Western). Protein amounts were normalized to vinculin.

Data set [3] concerns Hep3B cells. The data set is described as follows: Co-transfection of SQT-Bim-BH3 in MC3 LNPs with Bcl-2-like trap mRNA constructs, YOYO-3. It counts as cell-based. As to conditions: 272 picomolar SQT-Bim-BH3 in MC3 LNPs, increasing amounts of trap mRNA, 12 hour time point. The text has this: YOYO-3 viability dye was used to assess apoptosis of cells.

B1: SQT(nt)BID-BH3: mRNA (SEQ ID NO: 43) encoding SQT with a single BID BH3 domain in the N-terminal insertion site (nucleic acid, listed as Homo sapiens)
chain: ATGATACCCAGACAAGAGGACATCATTCGTAACATCGCGCGACACCTGGCCCAGGTGGGGGACTCCATGGATCGATCAATCCCCCCTGGCTTATCCGAAGCTAAGCCAGCCACCCCTGAGATCCAAGAAATCGTCGACAAGGTCAAGCCCCAACTTGAAGAGAAAACTAATGAAACTTATGGTAAGCTCGAAGCCGTGCAATACAAGACTCAGGTCCTGGCGTCTACAAATTATTACATCAAGGTGAGGGCCGGGGACAATAAGTATATGCATCTGAAAGTCTTCAATGGCCCCCCTGGACAAAACGCAGATCGGGTGCTCACAGGATACCAGGTCGATAAAAATAAAGATGACGAACTTACTGGGTTTGATTATAAAGATGATGATGACAAG
modifications: (1)..(393) SQT(nt)BID-BH3 mRNA sequence with FLAG epitope tag
B1: the “apoptotic potency (YOYO3 cell death)” value in the data set on Hep3B cells [1] is given as “more potent than the SQT-BID-BH3 constructs with the BH3 domain inserted at either the loop 1 insertion site or the loop 2 insertion site”.

B2: SQT scaffold: Stefin A Quadruple Mutant-Tracy scaffold polypeptide (SEQ ID NO: 70) expressed from a dummy mmRNA construct (protein)
chain: MIPRGLSEAKPATPEIQEIVDKVKPQLEEKTNETYGKLEAVQYKTQVLASTNYYIKVRAGDNKYMHLKVFNGPPGQNADRVLTGYQVDKNKDDELTGF
modifications: Synthetic SteA SQT scaffold amino acid sequence
As usually defined, the half-life is the time in which the quantity being followed falls by half. A low value points to rapid decline. As for B2, the half-life in the data set with cells turned out to be 33.31 h. The “time to peak protein levels” value in data set [2] (first dose (day 0) of LNP) is “approximately 20 hours”; in data set [2] (second dose (day 7), post-injection), “approximately 20 hours”. Besides, the “time at which protein levels were essentially finished” value in data set [2] (post-injection of first dose) is “approximately 160 hours”.

B3: Bcl-2 (D34A) del.C32: Bcl-2-like trap mRNA, SEQ ID NO: 82, FLAG tag (nucleic acid)
chain: ATGGCACACGCTGGTAGGACAGGCTACGACAACCGTGAGATTGTGATGAAGTATATTCACTATAAGCTGTCTCAAAGAGGCTACGAATGGGATGCGGGGGCCGTCGGGGCTGCCCCACCTGGTGCCGCCCCGGCTCCTGGGATTTTCTCTTCCCAGCCGGGACATACCCCTCATCCTGCCGCTTCTAGGGACCCTGTGGCAAGAACATCCCCTCTACAGACCCCTGCCGCCCCAGGTGCGGCTGCTGGCCCAGCGTTAAGTCCCGTTCCACCAGTCGTGCACCTTACCCTTAGGCAAGCGGGCGACGATTTCTCTAGGCGATACCGGAGGGACTTTGCCGAAATGTCATCACAGCTCCATCTTACTCCATTTACTGCCCGTGGCAGATTCGCCACCGTAGTGGAAGAACTCTTTCGAGACGGCGTAAATTGGGGGAGGATCGTGGCATTTTTCGAATTTGGAGGGGTTATGTGTGTGGAGAGCGTGAATCGGGAAATGTCTCCTCTGGTTGACAATATTGCCTTGTGGATGACCGAATATCTTAACAGGCACCTCCACACCTGGATTCAAGATAATGGTGGATGGGATGCGTTTGTGGAACTTTATGGGCCTTCAATGCGTGACTATAAGGACGACGACGACAAA
modifications: FLAG tag; Synthetic Bcl-2(D34A)del.C32 BH3 mRNA sequence with FLAG epitope tag
Take B3: the “protection from apoptosis by SQT-Bim-BH3 (YOYO-3)” value in the data set with Hep3B cells [3] is given as “all of the tested trap constructs except Bcl-2 (D34A) del.C32 were able to protect”.

Source of the values: patent US20190119357A1, “MESSENGER RIBONUCLEIC ACIDS FOR THE PRODUCTION OF INTRACELLULAR BINDING POLYPEPTIDES AND METHODS OF USE THEREOF” (ModernaTX, Inc., priority 2015, published 2019).
